Columns and labels:
[1] = molecular target: GFP1-10 (large fragment of GFP) (Aequorea victoria (Water jellyfish) (Mesonema victoria)) [GFP: P42212]; assay: fluorescence reconstitution, pseudo-first order, one phase association fit
[2] = molecular target: GFP1-10 (large fragment of GFP) (Aequorea victoria (Water jellyfish) (Mesonema victoria)) [GFP: P42212]; assay: fluorescence reconstitution kinetics, calculated from kobs at varied GFP11 concentrations
[3] = molecular target: GFP1-10 (large fragment of GFP) (Aequorea victoria (Water jellyfish) (Mesonema victoria)) [GFP: P42212]; assay: fluorescence reconstitution, pseudo-first order, one phase association fit; GFP11 concentration not stated
[4] = molecular target: GFP1-10 (large fragment of GFP) (Aequorea victoria (Water jellyfish) (Mesonema victoria)) [GFP: P42212]; assay: fluorescence increase over time with varied GFP11 peptide and purified GFP1-10 at 3 mM, one site binding model
[5] = molecular target: GFP1-10 (large fragment of GFP) (Aequorea victoria (Water jellyfish) (Mesonema victoria)) [GFP: P42212]; assay: stopped-flow fluorescence reconstitution, pseudo-first order, one phase association fit; 50 nM GFP11, excess GFP1-10

half time [1]: 95 s | kon [2]: 760000 M⁻¹ s⁻¹ | kobs [3]: 0.007 s⁻¹ | Kd [4]: 481 µM | kobs [5]: 0.003 s⁻¹
Substance: GFP11 peptide (chemically synthesized small fragment of split GFP; variant not stated)

Reference: patent US20210404962A1
